Measured values published in PMC9838529.
Several values for one entry are separate records, joined by “and”; a condition that tells them apart may be missing. Identical values can stand only once.

Tests used:
[1] = target: monoclonal mouse antibody aE11 (full IgG) (mouse); assay: SPR; aE11 IgG amine-coupled to a CM5 chip (~7000 RU), monomeric C9 as analyte; Biacore T200, 25 °C; 10 mM HEPES-NaOH pH 7.2, 150 mM NaCl, 1 mM EDTA, 0.005% P20; multi-cycle kinetics; off rate from a simple exponential decay (1:1 binding model); n = 2
monoclonal mouse antibody aE11 (full IgG) (mouse), sequence (heavy, as listed by the source, chain 1 of 2): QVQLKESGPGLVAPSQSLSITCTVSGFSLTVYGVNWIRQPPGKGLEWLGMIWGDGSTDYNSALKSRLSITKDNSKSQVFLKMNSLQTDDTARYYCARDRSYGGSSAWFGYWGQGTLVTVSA
monoclonal mouse antibody aE11 (full IgG) (mouse), sequence (light, as listed by the source, chain 2 of 2): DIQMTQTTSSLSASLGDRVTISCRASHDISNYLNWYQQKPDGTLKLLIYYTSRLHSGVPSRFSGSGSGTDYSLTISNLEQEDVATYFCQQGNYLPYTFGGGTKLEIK

aE11 IgG (mouse) = assay: SPR; aE11 IgG amine-coupled to a CM5 chip (~7000 RU), monomeric C9 as analyte; Biacore T200, 25 °C; 10 mM HEPES-NaOH pH 7.2, 150 mM NaCl, 1 mM EDTA, 0.005% P20; multi-cycle kinetics; off rate from a simple exponential decay (1:1 model); steady state not reached
aE11 IgG (mouse), sequence (heavy, as listed by the source, chain 1 of 2): as the sequence (heavy, as listed by the source, chain 1 of 2) above
aE11 IgG (mouse), sequence (light, as listed by the source, chain 2 of 2): as the sequence (light, as listed by the source, chain 2 of 2) above

[2] = target: polyC9 (in vitro homo-oligomerised human C9, wild type) (human); assay: cryo-EM structure; aE11-Fab mixed with polyC9 in stoichiometric quantities; 1 mg/ml in 10 mM HEPES, 50 mM NaCl, pH 7.2; symmetry expansion and focused refinement of three C9 protomers and two Fab variable regions

human complement C9, wild type, monomeric, sequence (P02748 22-559): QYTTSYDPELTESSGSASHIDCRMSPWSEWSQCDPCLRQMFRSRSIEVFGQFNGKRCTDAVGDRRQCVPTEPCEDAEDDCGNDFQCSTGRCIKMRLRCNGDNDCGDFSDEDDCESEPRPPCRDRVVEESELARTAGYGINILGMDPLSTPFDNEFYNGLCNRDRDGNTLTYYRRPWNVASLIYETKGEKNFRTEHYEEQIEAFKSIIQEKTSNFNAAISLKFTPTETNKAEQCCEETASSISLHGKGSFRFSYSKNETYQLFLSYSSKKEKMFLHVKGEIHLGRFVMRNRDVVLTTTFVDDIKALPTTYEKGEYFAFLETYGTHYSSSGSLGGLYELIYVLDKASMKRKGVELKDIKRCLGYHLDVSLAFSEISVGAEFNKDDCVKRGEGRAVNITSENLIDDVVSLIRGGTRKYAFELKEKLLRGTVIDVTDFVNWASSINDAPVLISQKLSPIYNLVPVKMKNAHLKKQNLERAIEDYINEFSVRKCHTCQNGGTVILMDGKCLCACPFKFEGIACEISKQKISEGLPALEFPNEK
monomeric human C9, wild type (recombinant), sequence (P02748 22-559): as above

| Substance | koff [1] | koff (aE11 IgG (mouse)) [s⁻¹] | other results |
| --- | --- | --- | --- |
| human complement C9 F262C/V405C, disulphide-trapped, monomeric (from UniProt P02748 22-559) (natural protein) | 0.000267 s⁻¹ and 0.000353 s⁻¹ | – | – |
| monomeric human C9 P72E (from UniProt P02748 22-559) (natural protein) | – | 0.0001 | fold reduction of binding against wild-type monomeric C9 (aE11 IgG (mouse)): 2 fold |
| disulphide-trapped C9 variant (F262C/V405C) (from UniProt P02748 22-559) (natural protein) | – | 0.0001 | – |
| monomeric human C9 R65Q (from UniProt P02748 22-559) (natural protein) | – | 0.0001 | – |
| polyC9 (in vitro homo-oligomerised human C9, wild type) (complex) | – | – | stoichiometry N [2]: 22 |
| monomeric human C9, wild type (recombinant) (from UniProt P02748 22-559) (natural protein) | – | 0.0001 | Kd (aE11 IgG (mouse)): 500 to 2000 nM |

Now from value to substance, other results behind:

| koff [1] | koff (aE11 IgG (mouse)) [s⁻¹] | Substance | other results |
| --- | --- | --- | --- |
| 0.000169 s⁻¹ and 0.000183 s⁻¹ | – | human complement C9, wild type, monomeric (from UniProt P02748 22-559) (natural protein) | – |
| 0.000214 s⁻¹ and 8.63e-05 s⁻¹ | – | human complement C9 R65Q, monomeric (from UniProt P02748 22-559) (natural protein) | – |
| 3.11e-05 s⁻¹ and 3.58e-05 s⁻¹ | – | human complement C9 V68E, monomeric (from UniProt P02748 22-559) (natural protein) | – |
| – | 0.0001 | monomeric human C9 V68E (from UniProt P02748 22-559) (natural protein) | fold reduction of binding against wild-type monomeric C9 (aE11 IgG (mouse)): 2 fold |
| 0.000106 s⁻¹ and 6.14e-05 s⁻¹ | – | human complement C9 P72E, monomeric (from UniProt P02748 22-559) (natural protein) | – |
